From the Human Domainome abundance scans (Beltran et al. 2025)
± gives the uncertainty stated by the source.

Test: abundance fitness (aPCA) (normalised: wild type 0, dead -1); higher = more abundant; growth selection in yeast, the domain comes from the species named
Conditions: Homo sapiens

| Substance | abundance fitness |
| --- | --- |
| E3 ubiquitin-protein ligase NEDD4-like P224S, Q96PU5 | -0.711 ± 0.059 |
| E3 ubiquitin-protein ligase NEDD4-like R217D, Q96PU5 | -0.042 ± 0.078 |
| E3 ubiquitin-protein ligase NEDD4-like H186D, Q96PU5 | 0.168 ± 0.082 |
| E3 ubiquitin-protein ligase NEDD4-like V212C, Q96PU5 | -0.097 ± 0.076 |
| E3 ubiquitin-protein ligase NEDD4-like E201M, Q96PU5 | -0.066 ± 0.11 |
| E3 ubiquitin-protein ligase NEDD4-like T219W, Q96PU5 | -0.598 ± 0.075 |
| E3 ubiquitin-protein ligase NEDD4-like P197A, Q96PU5 | 0.022 ± 0.071 |
| E3 ubiquitin-protein ligase NEDD4-like V212S, Q96PU5 | -0.347 ± 0.071 |
| E3 ubiquitin-protein ligase NEDD4-like K202G, Q96PU5 | -0.482 ± 0.06 |
| E3 ubiquitin-protein ligase NEDD4-like Y210P, Q96PU5 | -0.778 ± 0.1 |
| E3 ubiquitin-protein ligase NEDD4-like E188S, Q96PU5 | 0.089 ± 0.22 |
| E3 ubiquitin-protein ligase NEDD4-like T209F, Q96PU5 | -0.325 ± 0.083 |
| E3 ubiquitin-protein ligase NEDD4-like M227W, Q96PU5 | -0.313 ± 0.07 |
| E3 ubiquitin-protein ligase NEDD4-like D228M, Q96PU5 | -0.175 ± 0.099 |
| E3 ubiquitin-protein ligase NEDD4-like M227L, Q96PU5 | -0.027 ± 0.067 |
| E3 ubiquitin-protein ligase NEDD4-like Q185L, Q96PU5 | -0.542 ± 0.081 |
| E3 ubiquitin-protein ligase NEDD4-like M227H, Q96PU5 | 0.092 ± 0.077 |
| E3 ubiquitin-protein ligase NEDD4-like S230Q, Q96PU5 | 0.025 ± 0.077 |
| E3 ubiquitin-protein ligase NEDD4-like G198C, Q96PU5 | -0.171 ± 0.092 |
| E3 ubiquitin-protein ligase NEDD4-like G207K, Q96PU5 | -0.128 ± 0.063 |
| E3 ubiquitin-protein ligase NEDD4-like L190H, Q96PU5 | -0.141 ± 0.11 |
| E3 ubiquitin-protein ligase NEDD4-like W221R, Q96PU5 | -0.052 ± 0.058 |
| E3 ubiquitin-protein ligase NEDD4-like H222C, Q96PU5 | -0.052 ± 0.094 |
| E3 ubiquitin-protein ligase NEDD4-like G198Y, Q96PU5 | -0.049 ± 0.069 |

| Substance | abundance fitness |
| --- | --- |
| E3 ubiquitin-protein ligase NEDD4-like E189H, Q96PU5 | -0.242 ± 0.13 |
| E3 ubiquitin-protein ligase NEDD4-like P191C, Q96PU5 | -0.155 ± 0.087 |
| E3 ubiquitin-protein ligase NEDD4-like T219D, Q96PU5 | -0.595 ± 0.085 |
| E3 ubiquitin-protein ligase NEDD4-like E200S, Q96PU5 | -0.166 ± 0.077 |
| E3 ubiquitin-protein ligase NEDD4-like E232G, Q96PU5 | -0.287 ± 0.12 |
| E3 ubiquitin-protein ligase NEDD4-like V203R, Q96PU5 | 0.007 ± 0.054 |
| E3 ubiquitin-protein ligase NEDD4-like T218V, Q96PU5 | 0.092 ± 0.056 |
| E3 ubiquitin-protein ligase NEDD4-like P191N, Q96PU5 | 0.051 ± 0.064 |
| E3 ubiquitin-protein ligase NEDD4-like P193D, Q96PU5 | -0.131 ± 0.076 |
| E3 ubiquitin-protein ligase NEDD4-like L190T, Q96PU5 | -0.182 ± 0.074 |
| E3 ubiquitin-protein ligase NEDD4-like Q220M, Q96PU5 | -0.362 ± 0.093 |
| E3 ubiquitin-protein ligase NEDD4-like V203W, Q96PU5 | -0.347 ± 0.078 |
| E3 ubiquitin-protein ligase NEDD4-like Q220H, Q96PU5 | -0.775 ± 0.17 |
| E3 ubiquitin-protein ligase NEDD4-like S231Y, Q96PU5 | -0.228 ± 0.11 |
| E3 ubiquitin-protein ligase NEDD4-like W199Y, Q96PU5 | -0.403 ± 0.14 |
| E3 ubiquitin-protein ligase NEDD4-like N216W, Q96PU5 | 0.029 ± 0.062 |
| E3 ubiquitin-protein ligase NEDD4-like G207W, Q96PU5 | -0.738 ± 0.077 |
| E3 ubiquitin-protein ligase NEDD4-like R217F, Q96PU5 | -0.011 ± 0.088 |
| E3 ubiquitin-protein ligase NEDD4-like P192N, Q96PU5 | -0.014 ± 0.059 |
| E3 ubiquitin-protein ligase NEDD4-like N216F, Q96PU5 | 0.052 ± 0.091 |
| E3 ubiquitin-protein ligase NEDD4-like E189S, Q96PU5 | -0.136 ± 0.065 |
| E3 ubiquitin-protein ligase NEDD4-like K202L, Q96PU5 | -0.205 ± 0.074 |
| E3 ubiquitin-protein ligase NEDD4-like S184V, Q96PU5 | -0.505 ± 0.13 |
| E3 ubiquitin-protein ligase NEDD4-like Q220R, Q96PU5 | -0.557 ± 0.072 |

| Substance | abundance fitness |
| --- | --- |
| E3 ubiquitin-protein ligase NEDD4-like H186S, Q96PU5 | -0.185 ± 0.076 |
| E3 ubiquitin-protein ligase NEDD4-like R217A, Q96PU5 | 0 ± 0.064 |
| E3 ubiquitin-protein ligase NEDD4-like E232M, Q96PU5 | -0.402 ± 0.12 |
| E3 ubiquitin-protein ligase NEDD4-like P224F, Q96PU5 | -1.1 ± 0.21 |
| E3 ubiquitin-protein ligase NEDD4-like N213P, Q96PU5 | -0.383 ± 0.24 |
| E3 ubiquitin-protein ligase NEDD4-like S230D, Q96PU5 | -0.023 ± 0.095 |
| E3 ubiquitin-protein ligase NEDD4-like Q220D, Q96PU5 | -0.258 ± 0.088 |
| E3 ubiquitin-protein ligase NEDD4-like E188L, Q96PU5 | -0.459 ± 0.28 |
| E3 ubiquitin-protein ligase NEDD4-like S230L, Q96PU5 | -0.29 ± 0.071 |
| E3 ubiquitin-protein ligase NEDD4-like P197M, Q96PU5 | 0.006 ± 0.076 |
| E3 ubiquitin-protein ligase NEDD4-like Q187W, Q96PU5 | -0.907 ± 0.073 |
| E3 ubiquitin-protein ligase NEDD4-like R208L, Q96PU5 | -0.128 ± 0.069 |
| E3 ubiquitin-protein ligase NEDD4-like E189V, Q96PU5 | -0.267 ± 0.069 |
| E3 ubiquitin-protein ligase NEDD4-like H214T, Q96PU5 | -0.062 ± 0.067 |
| E3 ubiquitin-protein ligase NEDD4-like M227T, Q96PU5 | -0.022 ± 0.089 |
| E3 ubiquitin-protein ligase NEDD4-like T218H, Q96PU5 | -0.017 ± 0.1 |
| E3 ubiquitin-protein ligase NEDD4-like E200T, Q96PU5 | -0.138 ± 0.081 |
| E3 ubiquitin-protein ligase NEDD4-like S184L, Q96PU5 | -0.599 ± 0.14 |
| E3 ubiquitin-protein ligase NEDD4-like L190V, Q96PU5 | -0.053 ± 0.053 |
| E3 ubiquitin-protein ligase NEDD4-like G198A, Q96PU5 | -0.032 ± 0.069 |
| E3 ubiquitin-protein ligase NEDD4-like K202W, Q96PU5 | -0.838 ± 0.089 |
| E3 ubiquitin-protein ligase NEDD4-like L190A, Q96PU5 | -0.186 ± 0.075 |
| E3 ubiquitin-protein ligase NEDD4-like N215F, Q96PU5 | -0.169 ± 0.1 |
| E3 ubiquitin-protein ligase NEDD4-like N213E, Q96PU5 | -0.404 ± 0.11 |

| Substance | abundance fitness |
| --- | --- |
| E3 ubiquitin-protein ligase NEDD4-like S230W, Q96PU5 | -0.496 ± 0.085 |
| E3 ubiquitin-protein ligase NEDD4-like G198P, Q96PU5 | -0.077 ± 0.074 |
| E3 ubiquitin-protein ligase NEDD4-like H222I, Q96PU5 | -0.251 ± 0.1 |
| E3 ubiquitin-protein ligase NEDD4-like P197S, Q96PU5 | 0.073 ± 0.06 |
| E3 ubiquitin-protein ligase NEDD4-like V212A, Q96PU5 | -0.102 ± 0.069 |
| E3 ubiquitin-protein ligase NEDD4-like W199L, Q96PU5 | -0.502 ± 0.058 |
| E3 ubiquitin-protein ligase NEDD4-like S225L, Q96PU5 | -0.095 ± 0.056 |
| E3 ubiquitin-protein ligase NEDD4-like P193Y, Q96PU5 | -0.057 ± 0.062 |
| E3 ubiquitin-protein ligase NEDD4-like G207P, Q96PU5 | -0.756 ± 0.053 |
| E3 ubiquitin-protein ligase NEDD4-like L226F, Q96PU5 | -0.079 ± 0.1 |
| E3 ubiquitin-protein ligase NEDD4-like V212T, Q96PU5 | -0.225 ± 0.094 |
| E3 ubiquitin-protein ligase NEDD4-like H186I, Q96PU5 | 0.086 ± 0.12 |
| E3 ubiquitin-protein ligase NEDD4-like D228L, Q96PU5 | -0.14 ± 0.062 |
| E3 ubiquitin-protein ligase NEDD4-like E189P, Q96PU5 | -0.384 ± 0.093 |
| E3 ubiquitin-protein ligase NEDD4-like Q187G, Q96PU5 | -0.799 ± 0.07 |
| E3 ubiquitin-protein ligase NEDD4-like Q187A, Q96PU5 | -0.256 ± 0.058 |
| E3 ubiquitin-protein ligase NEDD4-like E200G, Q96PU5 | -0.299 ± 0.059 |
| E3 ubiquitin-protein ligase NEDD4-like W221E, Q96PU5 | -0.106 ± 0.085 |
| E3 ubiquitin-protein ligase NEDD4-like S184A, Q96PU5 | -0.461 ± 0.096 |
| E3 ubiquitin-protein ligase NEDD4-like H222P, Q96PU5 | -0.133 ± 0.063 |
| E3 ubiquitin-protein ligase NEDD4-like V229W, Q96PU5 | -0.164 ± 0.06 |
| E3 ubiquitin-protein ligase NEDD4-like K202Q, Q96PU5 | -0.252 ± 0.096 |
| E3 ubiquitin-protein ligase NEDD4-like Q185K, Q96PU5 | -0.398 ± 0.12 |
